Residue numbers refer to the chain shown, from its start. Numbers in names are those of the source.

The series deals with the molecule itself. Put plainly: SEC; analytical size exclusion chromatography, Superdex75 column; 50 mM Na2HPO4, 150 mM NaCl, 5 mM DTT, pH 6.5; mass from molecular weight standards.

B1: human PALB2 coiled-coil domain (PALB2cc, residues 6-42) (domain or fragment, UniProt Q86YC2 6-42, looked up)
chain: GKPLSCEEKEKLKEKLAFLKREYSKTLARLQRAQRAE
notes: PALB2 (partner and localizer of BRCA2), human, N-terminal coiled-coil domain, residues 6-42 of the 1186-amino-acid protein; A methionine was introduced before the domain for CNBr cleavage of the His-GB1 tag; The NMR sample was uniformly 13C,15N labelled; The methods of the CD experiments say that PALB2cc peptides were synthesized; also called wt-PALB2cc; source: E. coli BL21-DE3, purified …
B1: the “stoichiometry N” value came out at 2.

B2: S10E, S29E-PALB2cc (peptide, UniProt Q86YC2 6-42, looked up)
chain: B1 chain with S5E, S24E
notes: also called S10E, S29E phosphomimetic PALB2 coiled-coil domain; source: synthetic peptide (Lifetein technologies)
On to B2, for which the binding result was “binds”.

(Values after paper PMC12096946, “Structural analysis of genetic variants of the human tumor suppressor PALB2 coiled-coil domain” (Bioscience Reports, 2025).)
